Laboratory results taken from patent US12060433B2, “CD73 inhibitor and A2A/A2B adenosine receptor inhibitor combination therapy” (Incyte Corporation, priority 2020, dated 2024).

What was measured:
[1] = target: T1, human CD73 (Homo sapiens, UniProt P21589); assay: Epitope mapping by hydrogen-deuterium exchange mass spectrometry (HDX); settings: Fab in complex with CD73
T1 sequence (P21589 27-549 limits assumed): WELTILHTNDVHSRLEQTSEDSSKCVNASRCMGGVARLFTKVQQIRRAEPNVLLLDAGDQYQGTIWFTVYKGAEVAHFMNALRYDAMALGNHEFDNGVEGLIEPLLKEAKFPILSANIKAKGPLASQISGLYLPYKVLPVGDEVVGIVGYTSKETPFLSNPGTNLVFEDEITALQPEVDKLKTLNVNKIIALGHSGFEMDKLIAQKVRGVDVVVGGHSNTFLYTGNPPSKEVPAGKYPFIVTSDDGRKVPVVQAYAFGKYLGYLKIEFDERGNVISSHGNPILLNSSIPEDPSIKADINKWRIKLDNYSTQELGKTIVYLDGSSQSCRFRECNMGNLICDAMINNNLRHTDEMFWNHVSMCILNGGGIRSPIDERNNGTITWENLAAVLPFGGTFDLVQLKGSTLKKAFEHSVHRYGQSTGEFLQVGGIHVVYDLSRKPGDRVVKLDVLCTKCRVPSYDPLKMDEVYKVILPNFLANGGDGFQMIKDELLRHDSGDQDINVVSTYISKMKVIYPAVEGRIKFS
Method: To map the epitope of CL25, Hydrogen-deuterium exchange mass spectrometry (HDX) was performed. CD73 was incubated in deuterium oxide either alone or in complex with CL25 Fab. The deuterium exchange was carried out at 20° C. for 0 seconds, 60 seconds, 600 seconds, or 3600 seconds. The exchange reaction was quenched by low pH and the proteins were digested with pepsin/protease VIII. The deuterium levels at the identified peptides were monitored from the mass shift on LC-MS. The deuterium buildup curves over exchange time for all the peptides were plotted vs time. Peptides with significant reduction in deuterium uptakes upon binding to Fab were assigned as the epitopes for each antibody.

[2] = target: T2, human CD73 (SEQ ID NO: 70) (Homo sapiens, UniProt P21589); assay: SPR (Biacore 8K) binding affinity and kinetics to human CD73
T2 construct: purchased BPS Bioscience
T2 sequence (P21589 27-549): T1 sequence (P21589 27-549 limits assumed)
Method: The SPR running buffer (10 mM HEPES, 150 mM NaCl, 3 mM EDTA and 0.05% v/v Surfactant P20, pH 7.4) was prepared from 10×HBS-EP Buffer (GE Healthcare). Anti-human Fc antibodies (GE Healthcare) were immobilized via amine coupling on all sixteen flow cells of an S series sensor chip CM5 (GE Healthcare). The immobilization levels were ˜9000 RU for all flow cells. The desired capturing level of anti-CD73 antibody was achieved by flowing appropriate concentration of anti-CD73 antibody through the active flow cell of each channel. The non-cleavable ADP analogue APCP (adenosine-5′-(α,β-methylene) diphosphate) with the presence of Zn^2+ can be used to shift the CD73 conformational equilibrium from open towards closed. Therefore, recombinant CD73 was incubated with SPR running buffer in the presence of 100 μM APCP and 10 μM ZnCl2 (closed SPR running buffer) to study the binding of anti-CD73 antibody to the CD73 in the closed conformation. To achieve this, the ABA injection feature in Biacore 8K was used. For open conformation, the ABA injection sequence started with 60 seconds injection of running buffer. Then, CD73 3-fold serial dilution concentration series prepared from CD73 stock (BPS Bioscience) and running buffer were injected for 180 seconds immediately followed by running buffer for 240 seconds. For closed conformation, the normal SPR running buffer was replaced by closed SPR running buffer. Surface was regenerated with 30 seconds injection of 3 M MgCl2. […] Binding affinities and kinetic association and dissociation rate constants to human, cynomolgus, and mouse CD73 in either open or closed conformations are shown in Table 8 below. The results in Table 8 ensure cynomolgus pharmacokinetic data will reflect human pharmacokinetic data.
Binding affinities and kinetic association and dissociation rate constants to human, cynomolgus, and mouse CD73 in either open or closed conformations are shown in Table 9 below.

[3] = target: T3, cellular CD73 on MDA-MB-231 cells (Homo sapiens, UniProt P21589); assay: Cellular CD73 inhibition (AMP-Glo), MDA-MB-231 cells; format: cell-based; settings: 100 μM AMP, 3 hours
T3 construct: endogenous in cells; host or cells: MDA-MB-231
T3 sequence (P21589 27-549): T1 sequence (P21589 27-549 limits assumed)
Method: To measure ability of anti-CD73 antibody to inhibit CD73 activity on cells, A375 and MDA-MB-231 cells were washed with serum free RPMI media (ThermoFisher) and plated in 96-well plates at a concentration of 8×10^4 cells/well for A375 or 1×10^4 cells/well for MDA-MB-231. The cells were incubated with the indicated concentration of antibodies or APCP at 37° C. 5% C02 for 30 minutes (FIG. 3A, FIG. 3B, and FIG. 3C). Next, adenosine monophosphate (AMP) was added to a final concentration of 100 μM and cells were incubated an additional 3 hours at 37° C. 5% CO2. Plates were centrifuged for 1-2 minutes at 300 g and 25 μL of supernatant was transferred into a new 96-well plates. AMP-Glo Assay was used according to the manufacturer's instructions (Promega). Relative luminescence unit (RLU) is directly correlated with the AMP concentration in this assay. Results are depicted in FIG. 3A, FIG. 3B, and FIG. 3C. […] Results are depicted in FIG. 8A and FIG. 8B. […] Cells were incubated with the indicated concentration of antibodies or APCP at 37° C. 5% CO2 for 30 minutes. Next, AMP was added to a final concentration of 100 μM and cells were incubated an additional 3 hours at 37° C. 5% CO2. Plates were centrifuged for 1-2 minutes at 300 g and 25 μL of supernatant was transferred into a new 96-well plates. AMP-Glo Assay was used according to the manufacturer's instructions. […]

[4] = target: T4, cell surface CD73 on MDA-MB-231 cells (Homo sapiens, UniProt P21589); assay: Binding to cell surface CD73 by flow cytometry (GMFI), MDA-MB-231 cells; format: cell-based; settings: high levels of surface CD73
T4 construct: endogenous in cells; host or cells: MDA-MB-231
T4 sequence (P21589 27-549): T1 sequence (P21589 27-549 limits assumed)
Method: To test the binding of humanized and non-humanized CL25 clones to cell surface CD73, MDA-MB-231 or A375 cells were washed and added to 96-well plates at 5×10^4 cells/well. The cells were stained with the indicated concentration of antibodies for 30 minutes on ice (FIG. 2A and FIG. 2B). Next, the cells were washed and stained using goat anti-mouse secondary conjugated to phycoerythrin (PE) for 30 minutes on ice. The cells were then washed and analyzed by flow cytometry. Geometric mean fluorescence intensity (GMFI) of CD73 staining was graphed (FIG. 2A and FIG. 2B).
Cells were stained with the indicated concentration of antibodies for 1 hour on ice. Cells were then washed and stained goat anti-mouse secondary conjugated to PE for 30 minute on ice. Cells were then washed and analyzed by flow cytometry. The GMFI of CD73 staining is graphed (FIG. 13).

[5] = human CD73, closed conformation (100 μM APCP, 10 μM ZnCl2)
[6] = human CD73, open conformation, 25° C.

B1: CL25: chimeric anti-human CD73 monoclonal antibody, murine VH SEQ ID NO:26 and VL SEQ ID NO:27 with human IgG1 Fc (antibody, V domains shown)
VH: QVQLQQSGAELARPGASVKLSCRASGYTFTSYGLSWVKQRTGQGLEWIGEIYPGSGNTYYNEKFKGKATLTADKSSSTAYMELRSLTSEDSAVYFCARYDYLGSSYGFDYWGQGTTLTVSS
VL: DIVMTQSHKFMSTSVGDRVSITCKASQDVSTAVAWYQQKPGQSPKLLIYSASYRYNGVPDRFTGSGSGTDFTFTISSVQAEDLAVYYCQQHYNTPYTFGGGTKLEIK
modifications: human IgG1 Fc constant regions without entry
B1 was tested. Which “epitope determined by HDX-MS” value [1] did it give?
Its value is “TKVQQIRRAEPNVL”.

And the ka [2, 5]?
Its ka is 903000 M⁻¹ s⁻¹.

And the kd [2, 5]?
The kd was 0.000344 s⁻¹.

And the ka [2, 6]?
The ka was greater than 1e+06 M⁻¹ s⁻¹.

And the kd [2, 6]?
Its kd is 0.000394 s⁻¹.

And the “cellular CD73 inhibition” value [3]?
Its value is “good potency”.

And the “cell binding (GMFI)” value [4]?
The value was “high potency binding”.
